Biological target: T1, 3xFLAG-HSF1, Q00613
T1 chain: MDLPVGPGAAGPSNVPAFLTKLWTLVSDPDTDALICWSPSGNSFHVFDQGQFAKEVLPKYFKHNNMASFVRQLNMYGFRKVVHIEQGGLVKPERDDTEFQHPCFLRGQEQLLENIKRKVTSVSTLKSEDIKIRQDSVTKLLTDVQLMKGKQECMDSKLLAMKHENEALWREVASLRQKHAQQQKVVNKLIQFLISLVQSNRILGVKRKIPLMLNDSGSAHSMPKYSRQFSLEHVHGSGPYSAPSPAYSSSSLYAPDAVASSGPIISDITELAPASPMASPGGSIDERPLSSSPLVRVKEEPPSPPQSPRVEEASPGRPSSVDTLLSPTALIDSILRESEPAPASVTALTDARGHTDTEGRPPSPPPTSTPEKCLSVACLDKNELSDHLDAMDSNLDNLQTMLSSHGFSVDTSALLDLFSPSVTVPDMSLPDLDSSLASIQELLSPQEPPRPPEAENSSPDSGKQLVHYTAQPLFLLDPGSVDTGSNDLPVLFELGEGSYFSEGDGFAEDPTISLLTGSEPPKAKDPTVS
Test: cross-linking; cell extracts from transfected 293T cells, in vitro cross-linking with 2 mM ethylene glycol bis(succinimidyl succinate) (EGS), immunoblot; with or without DBC1 overexpression
Settings: remark: other sources report otherwise

stoichiometry N: 3
B1: 3xFLAG-HSF1, Q00613 1-529 (natural protein)
chain: MDLPVGPGAAGPSNVPAFLTKLWTLVSDPDTDALICWSPSGNSFHVFDQGQFAKEVLPKYFKHNNMASFVRQLNMYGFRKVVHIEQGGLVKPERDDTEFQHPCFLRGQEQLLENIKRKVTSVSTLKSEDIKIRQDSVTKLLTDVQLMKGKQECMDSKLLAMKHENEALWREVASLRQKHAQQQKVVNKLIQFLISLVQSNRILGVKRKIPLMLNDSGSAHSMPKYSRQFSLEHVHGSGPYSAPSPAYSSSSLYAPDAVASSGPIISDITELAPASPMASPGGSIDERPLSSSPLVRVKEEPPSPPQSPRVEEASPGRPSSVDTLLSPTALIDSILRESEPAPASVTALTDARGHTDTEGRPPSPPPTSTPEKCLSVACLDKNELSDHLDAMDSNLDNLQTMLSSHGFSVDTSALLDLFSPSVTVPDMSLPDLDSSLASIQELLSPQEPPRPPEAENSSPDSGKQLVHYTAQPLFLLDPGSVDTGSNDLPVLFELGEGSYFSEGDGFAEDPTISLLTGSEPPKAKDPTVS

— article PMC12586603
